Test results reported in PMC7526519 (2020).

Assays:
[1] = biological target: SARS-CoV receptor binding domain (RBD), His-tagged (SARS-CoV, UniProt P59594 306-527); experiment: SPR
[2] = biological target: SARS-CoV-2 receptor binding domain (RBD), His-tagged (SARS-CoV-2, UniProt P0DTC2 319-541); experiment: SPR

Binder | Kd [1] [nM] | Kd [2] [nM]
bovine ACE2 ectodomain fused with mouse Fc (Fc fusion) QSTTEEQAKTFLEKFNHEAEDLSYQSSLASWNYNTNITDENVQKMNEARAKWSAFYEEQSRMAKTYSLEEIQNLTLKRQLKALQHSGTSALSAEKSKRLNTILNKMSTIYSTGKVLDPNTQECLALEPGLDDIMENSRDYNRRLWAWEGWRAEVGKQLRPLYEEYVVLENEMARANNYEDYGDYWRGDYEVTGAGDYDYSRDQLMKDVERTFAEIKPLYEQLHAYVRAKLMHTYPSYISPTGCLPAHLLGDMWGRFWTNLYSLTVPFEHKPSIDVTEKMENQSWDAERIFKEAEKFFVSISLPYMTQGFWDNSMLTEPGDGRKVVCHPTAWDLGKGDFRIKMCTKVTMDDFLTAHHEMGHIQYDMAYAAQPYLLRNGANEGFHEAVGEIMSLSAATPHYLKALGLLAPDFHEDNETEINFLLKQALTIVGTLPFTYMLEKWRWMVFKGEIPKQQWMEKWWEMKREIVGVVEPLPHDETYCDPACLFHVAEDYSFIRYYTRTIYQFQFHEALCKTAKHEGALFKCDISNSTEAGQRLLQMLRLGKSEPWTLALENIVGIKTMDVKPLLNYFEPLFTWLKEQNRNSFVGWSTEWTPYSDQSIKVRISLKSALGENAYEWNDNEMYLFQSSVAYAMRKYFSEARNETVLFGEDNVWVSDKKPRISFKFFVTSPNNVSDIIPRTEVENAIRLSRDRINDVFQLDDNSLEFLGIQPTLGPPYEPPVT | 89.8 | 73.7
pig ACE2 ectodomain fused with mouse Fc (Fc fusion) QSTTEELAKTFLEKFNLEAEDLAYQSSLASWNYNTNITDENIQKMNDARAKWSAFYEEQSRIAKTYPLDEIQTLILKRQLQALQQSGTSGLSADKSKRLNTILNTMSTIYSSGKVLDPNNPQECLVLEPGLDEIMENSKDYSRRLWAWESWRAEVGKQLRPLYEEYVVLENEMARANNYEDYGDYWRGDYEVTGTGDYDYSRNQLMEDVERTFAEIKPLYEHLHAYVRAKLMDAYPSRISPTGCLPAHLLGDMWGRFWTNLYPLTVPFGEKPSIDVTEAMVNQSWDAIRIFEEAEKFFVSIGLPNMTQGFWNNSMLTEPGDGRKVVCHPTAWDLGKGDFRIKMCTKVTMDDFLTAHHEMGHIQYDMAYAIQPYLLRNGANEGFHEAVGEIMSLSAATPHYLKALGLLPPDFYEDSETEINFLLKQALTIVGTLPFTYMLEKWRWMVFKGEIPKEQWMQKWWEMKREIVGVVEPLPHDETYCDPACLFHVAEDYSFIRYYTRTIYQFQFHEALCRTAKHEGPLYKCDISNSTEAGQKLLQMLSLGKSEPWTLALENIVGVKTMDVKPLLSYFEPLLTWLKAQNGNSSVGWNTDWTPYADQSIKVRISLKSALGKEAYEWNDNEMYLFRSSIAYAMRNYFSSAKNETIPFGAEDVWVSDLKPRISFNFFVTSPANMSDIIPRSDVEKAISMSRSRINDAFRLDDNTLEFLGIQPTLGPPDEPPVT | 35.8 | 47.6
rabbit ACE2 ectodomain fused with mouse Fc (Fc fusion) QSTIEELAKTFLEKFNQEAEDLSYQSALASWDYNTNITEENVQKMNDAEAKWSAFYEEQSKLAKTYPSQEVQNLTVKRQLQALQQSGSSALSADKSKQLNTILSTMSTIYSTGKVCNQSNPQECFLLEPGLDEIMAKSTDYNERLWAWEGWRSVVGKQLRPLYEEYVVLKNEMARANNYEDYGDYWRADYEAEGADGYDYSRSQLIDDVERTFSEIKPLYEQLHAFVRTKLMDAYPSRISPTGCLPAHLLGDMWGRFWTNLYSLTVPFGQKPNIDVTDTMVNQGWDAERIFKEAEKFFVSVGLPSMTQGFWENSMLTEPGDGRKVVCHPTAWDLGKGDFRIKMCTKVTMDNFLTAHHEMGHIQYDMAYATQPFLLRNGANEGFHEAVGEIMSLSAATPEHLKSIGLLPYDFHEDNETEINFLLKQALTIVGTLPFTYMLEKWRWMVFKGEIPKEQWMQKWWEMKREIVGVVEPMPHDETYCDPAALFHVANDYSFIRYYTRTIYQFQFQEALCQAAQHEGPLHKCDISNSTEAGQKLLNMLRLGRSEPWTLALENVVGAKNMDVRPLLNYFEPLFTWLKEQNRNSFVGWSTEWTPYADQSIKVRISLKTALGDQAYEWNDSEMYLFRSSVAYAMRKYFSEVKNQTILFGEEDVRVSDLKPRISFNFFVTAPNNVNDIIPRNEVEEAISMSRSRINDIFRLDDNSLEFVGIQPTLEPPYESPVP | 74.8 | 76.2
raccoon dog ACE2 ectodomain fused with mouse Fc (Fc fusion) QSTEDLVNTFLEKFNYEAEELSYQSSLASWNYNTNITDENLQKMNNAGAKWSAFYEEQSKLAKTYPLEEIQDSTVKRQLRALQHSGSSVLSADKNQRLNTILNSMSTIYSTGKACNPSNPQECLLLEPGLDDIMENSKDYNERLWAWEGWRSEVGKQLRPLYEEYVALKNEMARANNYEDYGDYWRGDYEEEWENGYNYSRNQLIDDVEHTFTQIMPLYQHLHAYVRTKLMDTYPSYISPTGCLPAHLLGDMWGRFWTNLYPLTVPFGQKPNIDVTNAMVNQSWDARKIFKEAEKFFVSVGLPNMTQGFWENSMLTEPSDSWKVVCHPTAWDLGRGDFRIKMCTKVTMDDFLTAHHEMGHIQYDMAYAAQPFLLRNGANEGFHEAVGEIMSLSAATPNHLKNIGLLPPSFFEDSETEINFLLKQALTIVGTLPFTYMLEKWRWMVFKGEIPKDQWMKTWWEMKRNIVGVVEPVPHDETYCDPASLFHVANDYSFIRYYTRTIYQFQFQEALCQIAKHEGPLHKCDISNSSEAGQKLLEMLKLGKSKPWTYALEIVVGAKNMDVRPLLNYFEPLFTWLKEQNRNSFVGWNTDWSPYADQSIKVRISLKSALGEKAYEWNNNEMYLFRSSIAYAMRQYFSEVKNQTIPFVEDNVWVSDLKPRISFNFFVTSPGNVSDIIPRTEVEEAIRMYRSRINDVFRLDDNSLEFLGIQPTLGPPYEPPVT | 179 | 96.4
monkey ACE2 ectodomain fused with mouse Fc (Fc fusion) QSTIEEQAKTFLDKFNHEAEDLFYQSSLASWNYNTNITEENVQNMNNAGEKWSAFLKEQSTLAQMYPLQEIQNLTVKLQLQALQQNGSSVLSEDKSKRLNTILNTMSTIYSTGKVCNPNNPQECLLLDPGLNEIMEKSLDYNERLWAWEGWRSEVGKQLRPLYEEYVVLKNEMARANHYKDYGDYWRGNYEVNGVDGYDYNRDQLIEDVERTFEEIKPLYEHLHAYVRAKLMNAYPSYISPTGCLPAHLLGDMWGRFWTNLYSLTVPFGQKPNIDVTDAMVNQAWNAQRIFKEAEKFFVSVGLPNMTQGFWENSMLTDPGNVQKVVCHPTAWDLGKGDFRIIMCTKVTMDDFLTAHHEMGHIQYDMAYAAQPFLLRNGANEGFHEAVGEIMSLSAATPKHLKSIGLLSPDFQEDNETEINFLLKQALTIVGTLPFTYMLEKWRWMVFKGEIPKDQWMKKWWEMKREIVGVVEPVPHDETYCDPASLFHVSNDYSFIRYYTRTLYQFQFQEALCQAAKHEGPLHKCDISNSTEAGQKLLNMLKLGKSEPWTLALENVVGAKNMNVRPLLNYFEPLFTWLKDQNKNSFVGWSTDWSPYADQSIKVRISLKSALGDKAYEWNDNEMYLFRSSVAYAMRTYFLEIKHQTILFGEEDVRVADLKPRISFNFYVTAPKNVSDIIPRTEVEEAIRISRSRINDAFRLNDNSLEFLGIQTTLAPPYQSPVT | 69.1 | 21.7
